# Reference: IntAct's records for PubMed 23706742
# B1: Phosphatidylinositol 4,5-bisphosphate 3-kinase catalytic subunit beta isoform (Mus musculus), Q8BTI9 (parent)
# chain: MPPAMADNLDIWAVDSQIASDGAISVDFLLPTGIYIQLEVPREATISYIKQMLWKQVHNYPMFNLLMDIDSYMFACVNQTAVYEELEDETRRLCDVRPFLPVLKLVTRSCDPAEKLDSKIGVLIGKGLHEFDALKDPEVNEFRRKMRKFSEAKIQSLVGLSWIDWLKHTYPPEHEPSVLENLEDKLYGGKLVVAVHFENSQDVFSFQVSPNLNPIKINELAIQKRLTIRGKEDEASPCDYVLQVSGRVEYVFGDHPLIQFQYIRNCVMNRTLPHFILVECCKIKKMYEQEMIAIEAAINRNSSNLPLPLPPKKTRVISHIWDNNNPFQITLVKGNKLNTEETVKVHVRAGLFHGTELLCKTVVSSEISGKNDHIWNEQLEFDINICDLPRMARLCFAVYAVLDKVKTKKSTKTINPSKYQTIRKAGKVHYPVAWVNTMVFDFKGQLRSGDVILHSWSSFPDELEEMLNPMGTVQTNPYAENATALHITFPENKKQPCYYPPFDKIIEKAAELASGDSANVSSRGGKKFLAVLKEILDRDPLSQLCENEMDLIWTLRQDCRENFPQSLPKLLLSIKWNKLEDVAQLQALLQIWPKLPPREALELLDFNYPDQYVREYAVGCLRQMSDEELSQYLLQLVQVLKYEPFLDCALSRFLLERALDNRRIGQFLFWHLRSEVHTPAVSVQFGVILEAYCRGSVGHMKVLSKQVEALNKLKTLNSLIKLNAVKLSRAKGKEAMHTCLKQSAYREALSDLQSPLNPCVILSELYVEKCKYMDSKMKPLWLVYSSRAFGEDSVGVIFKNGDDLRQDMLTLQMLRLMDLLWKEAGLDLRMLPYGCLATGDRSGLIEVVSTSETIADIQLNSSNVAATAAFNKDALLNWLKEYNSGDDLDRAIEEFTLSCAGYCVASYVLGIGDRHSDNIMVKKTGQLFHIDFGHILGNFKSKFGIKRERVPFILTYDFIHVIQQGKTGNTEKFGRFRQCCEDAYLILRRHGNLFITLFALMLTAGLPELTSVKDIQYLKDSLALGKSEEEALKQFKQKFDEALRESWTTKVNWMAHTVRKDYRS
# B2: GTP-binding protein Di-Ras1 (Mus musculus), Q91Z61 (parent)
# chain: MPEQSNDYRVVVFGAGGVGKSSLVLRFVKGTFRDTYIPTIEDTYRQVISCDKSVCTLQITDTTGSHQFPAMQRLSISKGHAFILVFSVTSKQSLDELSPIYKLIVQIKGSVEDIPIMLVGNKCDETQREVHTREAQAVAQEWKCAFMETSAKMNYNVKELFQELLTLETRRSVSLSVDGKRSSKQKRADRIKGKCALM
# Variants of: B1
# Details: with rac1_mouse Rac1, P63001
row,Variant,effect of a mutation on the interaction
1,T227D,decreasing interaction strength
2,Y187A,disrupting interaction strength
3,V192S,disrupting interaction strength
4,V192K,disrupting interaction strength
5,Q207D,decreasing interaction strength
6,K231A,decreasing interaction strength
7,D202A,disrupting interaction strength
8,Q223D,decreasing interaction strength
9,L186A,disrupting interaction strength
10,K185A,decreasing interaction strength
11,E183A,decreasing interaction strength
12,V203S,disrupting interaction strength
13,V203K,disrupting interaction strength
14,E219A,decreasing interaction strength
15,K190A,decreasing interaction strength
16,A194S,decreasing interaction strength
17,A194K,disrupting interaction strength
18,S205D;K224A,decreasing interaction strength
19,R229A,disrupting interaction strength

# Variants of: B1
# Details: with cdc42_mouse Cdc42, P60766
# Chain of cdc42_mouse Cdc42, P60766 (P60766 whole entry, looked up): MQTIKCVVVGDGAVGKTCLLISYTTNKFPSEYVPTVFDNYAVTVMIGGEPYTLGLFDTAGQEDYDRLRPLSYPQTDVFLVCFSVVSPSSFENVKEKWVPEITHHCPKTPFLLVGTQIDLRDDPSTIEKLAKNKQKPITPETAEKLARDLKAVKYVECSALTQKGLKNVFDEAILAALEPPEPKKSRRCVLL
row,Variant,effect of a mutation on the interaction
1,T227D,disrupting interaction strength
2,Y187A,disrupting interaction strength
3,V192S,disrupting interaction strength
4,V192K,disrupting interaction strength
5,Q207D,decreasing interaction strength
6,K231A,disrupting interaction strength
7,D202A,disrupting interaction strength
8,Q223D,decreasing interaction strength
9,L186A,disrupting interaction strength
10,K185A,decreasing interaction strength
11,E183A,decreasing interaction strength
12,V203S,disrupting interaction strength
13,V203K,disrupting interaction strength
14,E219A,decreasing interaction strength
15,K190A,decreasing interaction strength
16,A194S,decreasing interaction strength
17,A194K,disrupting interaction strength
18,S205D;K224A,decreasing interaction strength
19,R229A,disrupting interaction strength

# Variants of: B1
# Details: with rac1_mouse Rac1, P63001
# Remark: another data set of the same source
row,Variant,effect of a mutation on the interaction
1,S205D;V244A,disrupting interaction strength

# Variants of: B1
# Details: with cdc42_mouse Cdc42, P60766
# Remark: another data set of the same source
row,Variant,effect of a mutation on the interaction
1,S205D;K224A,disrupting interaction strength

# Variants of: B1
# Details: with rash_mouse Hras
row,Variant,effect of a mutation on the interaction
1,S205D;K224A,disrupting interaction strength

# Variants of: B1
# Details: with rac1_mouse Rac1, P63001
# Remark: another data set of the same source
row,Variant,effect of a mutation on the interaction
1,S205D;K224A,disrupting interaction

# Variants of: B1
# Details: with cdc42_mouse Cdc42, P60766
# Remark: another data set of the same source
row,Variant,effect of a mutation on the interaction
1,S205D;K224A,disrupting interaction

# Variants of: B2
# Details: with pk3cb_mouse Pik3cb
row,Variant,effect of a mutation on the interaction
1,MPEQSNDYRVVVFGAGGVGKSSLVLRFVKGTFRDTYDPTIEDTYRQVISCDKSVCTLQITDTTGSHQFPAMQRLSISKGHAFILVFSVTSKQSLDELSPIYKLIVQIKGSVEDIPIMLVGNKCDETQREVHTREAQAVAQEWKCAFMETSAKMNYNVKELFQELLTLETRRSVSLSVDGKRSSKQKRADRIKGKCALM,decreasing interaction strength
